This is an account of results in patent US20200199241A1 (Chugai, published 2020).

Holding throughout (test): SPR, captured antibody;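 note: antibody captured on a sensor chip, Fcγ receptor flowed over at 25 °C, receptor binding normalized to the captured antibody amount and expressed relative to the reference antibody ×100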
The target of one test is T1, human FcγRIa (human, UniProt P12314 16-292, limits assumed).
T1 construct: also called FcgRIa; hFcgRIa

The target in a further test is T2, human FcγRIIb (human, UniProt P31994 43-217, limits assumed).
T2 construct: also called FcgRIIb; hFcgRIIb
T2 sequence: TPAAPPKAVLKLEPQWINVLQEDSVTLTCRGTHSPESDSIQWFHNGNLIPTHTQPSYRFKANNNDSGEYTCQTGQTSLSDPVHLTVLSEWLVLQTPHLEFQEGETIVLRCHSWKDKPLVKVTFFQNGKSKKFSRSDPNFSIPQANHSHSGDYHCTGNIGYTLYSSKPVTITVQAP

A further test concerns the target T3, human FcγRIIa(R) (human, UniProt P12318 36-217).
T3 construct: also called FcgRIIaR; hFcgRIIa(R)
T3 chain: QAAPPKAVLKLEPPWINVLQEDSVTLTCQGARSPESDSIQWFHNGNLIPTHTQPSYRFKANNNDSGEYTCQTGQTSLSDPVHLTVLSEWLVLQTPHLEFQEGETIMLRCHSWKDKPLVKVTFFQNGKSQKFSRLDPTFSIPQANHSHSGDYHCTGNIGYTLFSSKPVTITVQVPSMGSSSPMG

For another test, the target named is T4, human FcγRIIa(H) (human, UniProt P12318 36-217).
T4 construct: also called FcgRIIaH; hFcgRIIa(H)
T4 sequence: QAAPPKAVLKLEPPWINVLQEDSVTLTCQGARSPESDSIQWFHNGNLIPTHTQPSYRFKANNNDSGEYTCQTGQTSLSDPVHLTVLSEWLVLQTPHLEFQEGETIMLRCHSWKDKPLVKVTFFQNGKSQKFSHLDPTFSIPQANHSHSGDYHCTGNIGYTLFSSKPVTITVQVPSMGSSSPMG

T1 sequence (P12314 16-292 limits assumed): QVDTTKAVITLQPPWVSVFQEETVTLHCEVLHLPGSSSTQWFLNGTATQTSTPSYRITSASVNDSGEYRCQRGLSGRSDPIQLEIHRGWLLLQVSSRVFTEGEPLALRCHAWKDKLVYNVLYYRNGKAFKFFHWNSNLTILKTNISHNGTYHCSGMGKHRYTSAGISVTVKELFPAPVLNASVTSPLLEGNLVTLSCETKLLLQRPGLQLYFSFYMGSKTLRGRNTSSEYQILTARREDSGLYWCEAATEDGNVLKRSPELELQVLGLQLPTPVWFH
Description for human FcγRIIa(H): (§1) Interaction between each modified antibody and Fcγ receptor prepared in the manner described above was analyzed using the BIACORE™ T100 surface plasmon resonance system (GE Healthcare), BIACORE™ T200 surface plasmon resonance system (GE Healthcare), BIACORE™ A100 surface plasmon resonance system or BIACORE™ 4000 surface plasmon resonance system. HBS-EP+ (GE Healthcare) was used for the running buffer, and measurements were carried out at 25° C. The chips used were chips in which antigen peptides, Protein A (Thermo Scientific), Protein A/G (Thermo Scientific) or Protein L (ACTIGEN® protein (Alltech or BioVision) were immobilized on the Series S Sensor Chip CMS (GE Healthcare) or Series S Sensor Chip CM4 (GE Healthcare) by amine coupling, or chips in which preliminarily biotinylated antigen peptides were allowed to interact and then immobilized on the Series S Sensor Chip SA (certified) (GE Healthcare). The target antibodies were captured on these sensor chips, Fcγ receptor diluted with the running buffer was allowed to interact, followed by measurement of the amount of bound antibody. The amounts bound were compared between antibodies. However, since the amount of Fcγ receptor bound depends on the amount of captured antibody, the values used for comparison were first corrected by dividing the amount of Fcγ receptor bound by the captured amount of each antibody. Through reaction with 10 mM glycine-HCl at pH 1.5, the sensor chips were regenerated by washing off antibody captured on the sensor chips and used repeatedly.
(§2) Binding strength was evaluated according to the following method based on the results of analyzing the interaction with each FcγR. […] That value was then further multiplied by 100, and the resulting value was used as an indicator of relative binding activity to each FcγR.
Description for human FcγRIIa(R): as §1, §2
Description for human FcγRIIb: as §1, §2
Description for human FcγRIa: as §1, §2

B1: GpH7-B3 P329K/GpL16-k0 (antibody, human IgG1)
heavy: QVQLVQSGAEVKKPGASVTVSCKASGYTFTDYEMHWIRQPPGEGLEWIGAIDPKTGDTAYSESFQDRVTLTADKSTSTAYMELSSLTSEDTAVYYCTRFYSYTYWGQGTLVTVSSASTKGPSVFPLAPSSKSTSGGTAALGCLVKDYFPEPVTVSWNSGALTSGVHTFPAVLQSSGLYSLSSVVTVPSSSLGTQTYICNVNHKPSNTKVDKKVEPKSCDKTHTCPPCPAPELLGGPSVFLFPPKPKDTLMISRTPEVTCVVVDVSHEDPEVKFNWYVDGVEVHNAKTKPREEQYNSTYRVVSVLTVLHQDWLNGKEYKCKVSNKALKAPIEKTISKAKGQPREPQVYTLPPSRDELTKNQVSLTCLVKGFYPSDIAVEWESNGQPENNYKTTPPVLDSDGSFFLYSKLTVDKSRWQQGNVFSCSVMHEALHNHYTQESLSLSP
light: DIVMTQSPLSLPVTPGEPASISCQASESLVHSNRNTYLHWYLQKPGQSPQLLIYKVSNRFSGVPDRFSGSGSGTDFTLKISRVEAEDVGVYYCSQNTHVPPTFGQGTKVEIE
notes: B3 variant; copies: 2 + 2
Consider B1, for which the relative binding activity in the test with human FcγRIa is 6 % of GpH7-B3/GpL16-k0; with human FcγRIIb it was -2 % of GpH7-B3/GpL16-k0; with human FcγRIIa(R), -2 % of GpH7-B3/GpL16-k0; with human FcγRIIa(H), -1 % of GpH7-B3/GpL16-k0.

B2: GpH7-B3 A327I/GpL16-k0 (antibody, human IgG1)
heavy: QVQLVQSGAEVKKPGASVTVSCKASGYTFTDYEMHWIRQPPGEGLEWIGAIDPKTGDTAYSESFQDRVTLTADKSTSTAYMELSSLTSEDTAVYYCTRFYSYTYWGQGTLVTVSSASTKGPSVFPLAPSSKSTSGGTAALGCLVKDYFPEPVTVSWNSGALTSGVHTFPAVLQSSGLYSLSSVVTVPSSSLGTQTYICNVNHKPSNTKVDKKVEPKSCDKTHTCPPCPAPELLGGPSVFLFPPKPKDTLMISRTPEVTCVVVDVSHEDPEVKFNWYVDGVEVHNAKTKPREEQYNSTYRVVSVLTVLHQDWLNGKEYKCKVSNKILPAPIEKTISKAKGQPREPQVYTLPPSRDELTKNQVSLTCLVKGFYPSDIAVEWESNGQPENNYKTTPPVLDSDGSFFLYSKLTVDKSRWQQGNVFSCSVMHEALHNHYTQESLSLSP
light: DIVMTQSPLSLPVTPGEPASISCQASESLVHSNRNTYLHWYLQKPGQSPQLLIYKVSNRFSGVPDRFSGSGSGTDFTLKISRVEAEDVGVYYCSQNTHVPPTFGQGTKVEIE
notes: B3 variant; copies: 2 + 2
As for B2, the relative binding activity with human FcγRIa was 98 % of GpH7-B3/GpL16-k0; with human FcγRIIb, 46 % of GpH7-B3/GpL16-k0; in the test with human FcγRIIa(R), 37 % of GpH7-B3/GpL16-k0; with human FcγRIIa(H), 12 % of GpH7-B3/GpL16-k0.

B3: GpH7-B3 A327M/GpL16-k0 (antibody, human IgG1)
heavy: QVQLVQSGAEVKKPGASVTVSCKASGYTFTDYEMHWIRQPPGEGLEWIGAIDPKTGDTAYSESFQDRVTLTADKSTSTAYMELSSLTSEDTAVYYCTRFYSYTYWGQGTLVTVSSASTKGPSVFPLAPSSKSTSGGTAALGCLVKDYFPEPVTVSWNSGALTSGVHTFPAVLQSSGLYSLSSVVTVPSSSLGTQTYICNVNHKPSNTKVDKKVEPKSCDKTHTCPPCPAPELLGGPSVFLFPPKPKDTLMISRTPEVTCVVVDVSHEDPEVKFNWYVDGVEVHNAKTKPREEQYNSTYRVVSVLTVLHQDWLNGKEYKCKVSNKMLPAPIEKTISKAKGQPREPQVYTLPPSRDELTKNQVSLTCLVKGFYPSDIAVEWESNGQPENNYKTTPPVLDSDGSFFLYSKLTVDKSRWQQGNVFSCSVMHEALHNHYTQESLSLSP
light: DIVMTQSPLSLPVTPGEPASISCQASESLVHSNRNTYLHWYLQKPGQSPQLLIYKVSNRFSGVPDRFSGSGSGTDFTLKISRVEAEDVGVYYCSQNTHVPPTFGQGTKVEIE
notes: B3 variant; copies: 2 + 2
With B3, the relative binding activity with human FcγRIa is 95 % of GpH7-B3/GpL16-k0; in the test with human FcγRIIb it was 40 % of GpH7-B3/GpL16-k0; in the test with human FcγRIIa(R), 38 % of GpH7-B3/GpL16-k0; in the test with human FcγRIIa(H), 55 % of GpH7-B3/GpL16-k0.

B4: GpH7-B3 A327Q/GpL16-k0 (antibody, human IgG1)
heavy: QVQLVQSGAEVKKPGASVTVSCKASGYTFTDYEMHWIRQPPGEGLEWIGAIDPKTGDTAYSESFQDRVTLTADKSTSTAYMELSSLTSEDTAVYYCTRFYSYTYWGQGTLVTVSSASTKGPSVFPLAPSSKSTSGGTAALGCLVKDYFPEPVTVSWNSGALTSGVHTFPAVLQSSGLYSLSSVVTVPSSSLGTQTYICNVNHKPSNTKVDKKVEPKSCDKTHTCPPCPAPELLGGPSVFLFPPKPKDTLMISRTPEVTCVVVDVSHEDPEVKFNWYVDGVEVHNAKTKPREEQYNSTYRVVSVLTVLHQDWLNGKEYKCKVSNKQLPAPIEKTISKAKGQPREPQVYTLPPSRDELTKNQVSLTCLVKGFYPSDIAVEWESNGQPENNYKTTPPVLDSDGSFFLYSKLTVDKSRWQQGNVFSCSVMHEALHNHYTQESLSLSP
light: DIVMTQSPLSLPVTPGEPASISCQASESLVHSNRNTYLHWYLQKPGQSPQLLIYKVSNRFSGVPDRFSGSGSGTDFTLKISRVEAEDVGVYYCSQNTHVPPTFGQGTKVEIE
notes: B3 variant; copies: 2 + 2
As for B4, the relative binding activity with human FcγRIa was 94 % of GpH7-B3/GpL16-k0; with human FcγRIIb, 29 % of GpH7-B3/GpL16-k0; in the test with human FcγRIIa(R), 34 % of GpH7-B3/GpL16-k0; with human FcγRIIa(H) it was 47 % of GpH7-B3/GpL16-k0.

B5: GpH7-B3 A327L/GpL16-k0 (antibody, human IgG1)
heavy: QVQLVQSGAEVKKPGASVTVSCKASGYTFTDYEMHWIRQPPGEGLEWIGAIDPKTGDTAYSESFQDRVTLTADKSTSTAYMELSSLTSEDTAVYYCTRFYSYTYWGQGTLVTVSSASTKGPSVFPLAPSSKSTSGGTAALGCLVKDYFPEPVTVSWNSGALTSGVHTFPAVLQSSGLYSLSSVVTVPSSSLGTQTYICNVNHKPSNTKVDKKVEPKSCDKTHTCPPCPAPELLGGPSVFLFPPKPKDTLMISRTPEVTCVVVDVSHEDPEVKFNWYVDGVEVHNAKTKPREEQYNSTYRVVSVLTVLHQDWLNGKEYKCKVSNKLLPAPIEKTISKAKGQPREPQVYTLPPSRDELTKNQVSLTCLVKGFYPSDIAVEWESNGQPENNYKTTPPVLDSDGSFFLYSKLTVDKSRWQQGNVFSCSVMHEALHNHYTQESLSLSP
light: DIVMTQSPLSLPVTPGEPASISCQASESLVHSNRNTYLHWYLQKPGQSPQLLIYKVSNRFSGVPDRFSGSGSGTDFTLKISRVEAEDVGVYYCSQNTHVPPTFGQGTKVEIE
notes: B3 variant; copies: 2 + 2
Turning to B5, the relative binding activity with human FcγRIa is 98 % of GpH7-B3/GpL16-k0; with human FcγRIIb, 34 % of GpH7-B3/GpL16-k0; with human FcγRIIa(R), 31 % of GpH7-B3/GpL16-k0; with human FcγRIIa(H), 16 % of GpH7-B3/GpL16-k0.

B6: GpH7-B3 A327P/GpL16-k0 (antibody, human IgG1)
heavy: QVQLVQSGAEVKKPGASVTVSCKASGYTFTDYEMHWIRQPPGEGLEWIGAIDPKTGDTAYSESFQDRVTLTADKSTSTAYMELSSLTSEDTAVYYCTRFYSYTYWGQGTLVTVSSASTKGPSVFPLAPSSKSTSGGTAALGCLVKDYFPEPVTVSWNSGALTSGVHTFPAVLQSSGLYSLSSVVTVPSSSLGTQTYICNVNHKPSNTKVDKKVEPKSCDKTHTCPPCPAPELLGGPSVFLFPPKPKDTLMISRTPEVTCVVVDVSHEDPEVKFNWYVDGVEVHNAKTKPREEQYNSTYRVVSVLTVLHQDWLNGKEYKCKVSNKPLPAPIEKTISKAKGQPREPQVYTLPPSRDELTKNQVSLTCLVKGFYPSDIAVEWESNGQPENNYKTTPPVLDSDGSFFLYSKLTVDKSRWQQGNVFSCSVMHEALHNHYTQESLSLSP
light: DIVMTQSPLSLPVTPGEPASISCQASESLVHSNRNTYLHWYLQKPGQSPQLLIYKVSNRFSGVPDRFSGSGSGTDFTLKISRVEAEDVGVYYCSQNTHVPPTFGQGTKVEIE
notes: B3 variant; copies: 2 + 2
Regarding B6, the relative binding activity in the test with human FcγRIa was 95 % of GpH7-B3/GpL16-k0; with human FcγRIIb it was 18 % of GpH7-B3/GpL16-k0; with human FcγRIIa(R), 14 % of GpH7-B3/GpL16-k0; in the test with human FcγRIIa(H), 16 % of GpH7-B3/GpL16-k0.

B7: GpH7-B3 A327K/GpL16-k0 (antibody, human IgG1)
heavy: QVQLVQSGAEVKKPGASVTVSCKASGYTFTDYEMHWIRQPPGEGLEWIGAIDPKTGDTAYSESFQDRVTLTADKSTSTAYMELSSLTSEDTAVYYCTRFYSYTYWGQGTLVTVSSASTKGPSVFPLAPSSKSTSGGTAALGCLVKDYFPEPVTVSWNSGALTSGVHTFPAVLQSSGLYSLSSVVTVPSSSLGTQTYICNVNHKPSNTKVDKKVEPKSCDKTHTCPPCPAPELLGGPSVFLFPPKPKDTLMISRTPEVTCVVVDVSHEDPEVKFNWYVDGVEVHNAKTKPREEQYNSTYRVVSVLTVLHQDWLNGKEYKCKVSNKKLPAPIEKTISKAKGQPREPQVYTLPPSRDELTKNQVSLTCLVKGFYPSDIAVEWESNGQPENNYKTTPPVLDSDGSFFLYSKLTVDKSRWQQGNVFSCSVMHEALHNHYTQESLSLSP
light: DIVMTQSPLSLPVTPGEPASISCQASESLVHSNRNTYLHWYLQKPGQSPQLLIYKVSNRFSGVPDRFSGSGSGTDFTLKISRVEAEDVGVYYCSQNTHVPPTFGQGTKVEIE
notes: B3 variant; copies: 2 + 2
In the case of B7, the relative binding activity in the test with human FcγRIa was 57 % of GpH7-B3/GpL16-k0; with human FcγRIIb it was 0 % of GpH7-B3/GpL16-k0; in the test with human FcγRIIa(R), -8 % of GpH7-B3/GpL16-k0; with human FcγRIIa(H), 0 % of GpH7-B3/GpL16-k0.

B8: GpH7-B3 A327F/GpL16-k0 (antibody, human IgG1)
heavy: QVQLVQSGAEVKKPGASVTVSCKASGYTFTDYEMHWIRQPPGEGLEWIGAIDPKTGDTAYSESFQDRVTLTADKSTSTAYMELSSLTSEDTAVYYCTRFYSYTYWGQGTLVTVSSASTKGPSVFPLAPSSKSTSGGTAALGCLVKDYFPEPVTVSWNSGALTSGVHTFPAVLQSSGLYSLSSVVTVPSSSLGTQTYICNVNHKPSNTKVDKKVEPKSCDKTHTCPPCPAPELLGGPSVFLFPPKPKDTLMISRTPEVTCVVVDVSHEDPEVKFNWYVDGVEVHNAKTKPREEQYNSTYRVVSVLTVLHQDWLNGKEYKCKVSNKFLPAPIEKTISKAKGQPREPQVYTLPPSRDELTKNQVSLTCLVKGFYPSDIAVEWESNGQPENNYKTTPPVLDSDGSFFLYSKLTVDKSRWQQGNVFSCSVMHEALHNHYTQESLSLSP
light: DIVMTQSPLSLPVTPGEPASISCQASESLVHSNRNTYLHWYLQKPGQSPQLLIYKVSNRFSGVPDRFSGSGSGTDFTLKISRVEAEDVGVYYCSQNTHVPPTFGQGTKVEIE
notes: B3 variant; copies: 2 + 2
Consider B8, for which the relative binding activity was 95 % of GpH7-B3/GpL16-k0 with human FcγRIa, 22 % of GpH7-B3/GpL16-k0 with human FcγRIIb, 17 % of GpH7-B3/GpL16-k0 with human FcγRIIa(R) and 37 % of GpH7-B3/GpL16-k0 in the test with human FcγRIIa(H).

B9: GpH7-B3 A327H/GpL16-k0 (antibody, human IgG1)
heavy: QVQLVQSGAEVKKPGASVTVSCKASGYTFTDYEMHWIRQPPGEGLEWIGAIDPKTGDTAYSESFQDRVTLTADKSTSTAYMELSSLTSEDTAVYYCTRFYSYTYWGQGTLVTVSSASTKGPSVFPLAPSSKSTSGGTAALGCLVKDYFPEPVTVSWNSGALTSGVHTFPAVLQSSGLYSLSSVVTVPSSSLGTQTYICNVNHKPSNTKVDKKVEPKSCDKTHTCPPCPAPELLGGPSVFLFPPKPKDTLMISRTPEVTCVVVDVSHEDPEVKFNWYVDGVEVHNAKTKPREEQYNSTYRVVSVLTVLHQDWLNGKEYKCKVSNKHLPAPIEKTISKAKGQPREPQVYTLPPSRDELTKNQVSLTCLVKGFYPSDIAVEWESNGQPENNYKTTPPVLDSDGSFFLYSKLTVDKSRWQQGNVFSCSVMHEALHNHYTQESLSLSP
light: DIVMTQSPLSLPVTPGEPASISCQASESLVHSNRNTYLHWYLQKPGQSPQLLIYKVSNRFSGVPDRFSGSGSGTDFTLKISRVEAEDVGVYYCSQNTHVPPTFGQGTKVEIE
notes: B3 variant; copies: 2 + 2
With B9, the relative binding activity in the test with human FcγRIa was 93 % of GpH7-B3/GpL16-k0; with human FcγRIIb it was 35 % of GpH7-B3/GpL16-k0; with human FcγRIIa(R), 32 % of GpH7-B3/GpL16-k0; in the test with human FcγRIIa(H) it was 23 % of GpH7-B3/GpL16-k0.
